{"source": "paper PMC8626509", "key": {"His79": {"target": "His79 (UniProt position 80, ASRLAHYNKRS)", "test": "NMR", "details": "303 K; 200 mM (adjusted with NaCl); 20 mM acetate pH 4.4, 5.0; 20 mM MES pH 5.4, 5.8, 6.2; 20 mM phosphate pH 6.8, 7.1, 7.5; folded free H2A-H2B heterodimer (150 uM)"}, "His106": {"target": "His106 (UniProt position 107, GELAKHAVSEG)", "test": "NMR", "details": "303 K; 200 mM (adjusted with NaCl); 20 mM acetate pH 4.4, 5.0; 20 mM MES pH 5.4, 5.8, 6.2; 20 mM phosphate pH 6.8, 7.1, 7.5; folded free H2A-H2B heterodimer (150 uM)"}, "Glu55": {"target": "Glu55 (UniProt position 56, LAAVMEYLAAE)", "test": "NMR", "details": "303 K, 200 mM (adjusted with NaCl)"}, "Glu90": {"target": "Glu90 (UniProt position 91, AIRNDEELNKL)", "test": "NMR", "details": "303 K; 200 mM (adjusted with NaCl); 20 mM sodium acetate (pH 4.4-5.1), 20 mM MES (pH 5.4-6.5), 20 mM sodium phosphate (pH 6.8-7.9), 20 mM CHES (pH 9.1); folded free H2A-H2B heterodimer"}, "Glu63": {"target": "Glu63 (UniProt position 64, AAEVLELAGNA)", "test": "NMR", "details": "303 K; 200 mM (adjusted with NaCl); 20 mM sodium acetate (pH 4.4-5.1), 20 mM MES (pH 5.4-6.5), 20 mM sodium phosphate (pH 6.8-7.9), 20 mM CHES (pH 9.1); folded free H2A-H2B heterodimer"}, "Asp89": {"target": "Asp89 (UniProt position 90, LAIRNDEELNK)", "test": "NMR", "details": "303 K; 200 mM (adjusted with NaCl); 20 mM acetate pH 4.5, 5.1; 20 mM MES pH 5.6, 6.0, 6.5; 20 mM phosphate pH 6.8, 7.5, 7.9; 20 mM CHES pH 9.1; folded free H2A-H2B heterodimer (150 uM)"}, "Glu91": {"target": "Glu91 (UniProt position 92, IRNDEELNKLL)", "test": "NMR", "details": "303 K, 200 mM (adjusted with NaCl)"}, "Glu60": {"target": "Glu60 (UniProt position 61, EYLAAEVLELA)", "test": "NMR", "details": "303 K; 200 mM (adjusted with NaCl); 20 mM sodium acetate (pH 4.4-5.1), 20 mM MES (pH 5.4-6.5), 20 mM sodium phosphate (pH 6.8-7.9), 20 mM CHES (pH 9.1); folded free H2A-H2B heterodimer"}, "[1]": {"details": "20 mM sodium acetate (pH 4.4-5.1), 20 mM MES (pH 5.4-6.5), 20 mM sodium phosphate (pH 6.8-7.9), 20 mM CHES (pH 9.1), folded free H2A-H2B heterodimer"}}, "note": "Where “and” joins values, the source holds several entries; their conditions need not be identical. Equal values may be shown once.", "data": [{"substance": "Histone H2B (in the free H2A-H2B heterodimer) (Drosophila melanogaster)", "values": [{"measurement": "pKa", "setting": "His46", "result": "5.86 ± 0.03 [5.66–6.06] and 5.64 ± 0.02 [5.54–5.74] and 5.75 ± 0.03 [5.52–5.92]"}, {"measurement": "pKa", "setting": "His79", "result": 6.7}, {"measurement": "pKa", "setting": "His106", "result": "6.52 ± 0.05 [6.23–6.93]"}]}, {"substance": "Histone H2A (in the free H2A-H2B heterodimer) (Drosophila melanogaster)", "values": [{"measurement": "pKa", "setting": "Glu55; 20 mM acetate pH 4.5, 5.1, 20 mM MES pH 5.6, 6.0, 6.5, 20 mM phosphate pH 6.8, 7.5, 7.9, 20 mM CHES pH 9.1, folded free H2A-H2B heterodimer (150 uM)", "result": "4.32 ± 0.08 [4.08–4.78]"}, {"measurement": "pKa", "setting": "Glu55; [1]", "result": "< 5"}, {"measurement": "pKa", "setting": "Glu90", "result": "< 5"}, {"measurement": "pKa", "setting": "Glu63", "result": "< 5"}, {"measurement": "pKa", "setting": "Asp89", "result": "5.51 ± 0.11 [4.37–6.07] and 5.02 ± 0.28 [4.61–5.61] and 5.3"}, {"measurement": "pKa", "setting": "Glu91; 20 mM acetate pH 4.4, 5.0, 20 mM MES pH 5.4, 5.8, 6.2, 20 mM phosphate pH 6.8, 7.1, 7.5, folded free H2A-H2B heterodimer (150 uM)", "result": "4.36 ± 0.06 [3.89–4.79]"}, {"measurement": "pKa", "setting": "Glu91; [1]", "result": "< 5"}, {"measurement": "pKa", "setting": "Glu60", "result": "< 5"}]}]}
